According to FireProtDB (doi:10.1073/pnas.0911904107):

B1: Lipid A palmitoyltransferase PagP, P37001 (parent)
chain: MNVSKYVAIFSFVFIQLISVGKVFANADEWMTTFRENIAQTWQQPEHYDLYIPAITWHARFAYDKEKTDRYNERPWGGGFGLSRWDEKGNWHGLYAMAFKDSWNKWEPIAGYGWESTWRPLADENFHLGLGFTAGVTARDNWNYIPLPVLLPLASVGYGPVTFQMTYIPGTYNNGNVYFAWMRFQF

Variants of: B1
Settings: Escherichia coli (strain K12), pH 8, 25 °C, Urea, CD, structure 1THQ, whole UniProt chain shown
[1] = Sodium phosphate 50 mM, reversible: Yes
[2] = sodium phosphate buffer, transition: 2, reversible: yes

Variant | ddG of mutation (higher = less stable) [1] [kcal/mol] | denaturant midpoint (higher = more stable) [1] [M] | unfolding free energy [1] [kcal/mol] | ddG of mutation (higher = less stable) [2] [kcal/mol] | denaturant midpoint (higher = more stable) [2] [M] | unfolding free energy [2] [kcal/mol]
MNVSKYVAIFSFVFIQLISVGKVFANADEWMTTFRENIAQTWQQPEHYDLYIPAITWHARFAYDKEKTDRYNERPWGGGFGLARWDEKGNWHGLYAMAFKDSWNKWEPIAGYGWESTWRPLADENFHLGLGFTAGVTARDNWNYIPLPVLLPLASVGYGPVTFQMTYIPGTYNNGNVYFAWMRFQF | 1.26 | 8.01 | 13.1 | 6.37 | 8.01 | 8.01
MNVSKYVAIFSFVFIQLISVGKVFANADEWMTTFRENIAQTWQQPEHYDLYIPAITWHARFAYDKEKTDRYNERPWGGGFGLSRWDEKGNWHGLYAMAFKDSWNKWEPIAGYGWESTWRPLADENFHLGLGFAAGVTARDNWNYIPLPVLLPLASVGYGPVTFQMTYIPGTYNNGNVYFAWMRFQF | 0.4 | 8.52 | 14 | 5.86 | 8.52 | 8.52
MNVSKYVAIFSFVFIQLISVGKVFANADEWMTTFRENIAQTWQQPEHYDLYIPAITWHARFAYDKEKTDRYNERPWGGGFGLSRWDEKGNWHGLYAMAFKDSWNKWEPIAGYGWESTWRPLADENFHLGLGFTAGVTARDNWNYIPLPVLLPLASVGYGPVAFQMTYIPGTYNNGNVYFAWMRFQF | 0.51 | 8.46 | 13.9 | 5.92 | 8.46 | 8.46
MNVSKYVAIFSFVFIQLISVGKVFANADEWMTTFRENIAQTWQQPEHYDLYIPAITWHARFAYDKEKTDRYNERPAGGGFGLSRWDEKGNWHGLYAMAFKDSWNKWEPIAGYGWESTWRPLADENFHLGLGFTAGVTARDNWNYIPLPVLLPLASVGYGPVTFQMTYIPGTYNNGNVYFAWMRFQF | 0.45 | 8.5 | 13.9 | 5.88 | 8.5 | 8.5
MNVSKYVAIFSFVFIQLISVGKVFANADEWMTTFRENIAQTWQQPEHYDLYIPAITWHARFAYDKEKTDRYNERPWGGGFGLSRWDEKGNWHGLYAMAFKDSWNKWEPIAGYGWESTWRPLADENFHLGLGFTAGVTARDNWNYIPLPVLLPLAAVGYGPVTFQMTYIPGTYNNGNVYFAWMRFQF | 1.27 | 8 | 13.1 | 6.38 | 8 | 8
MNVSKYVAIFSFVFIQLISVGKVFANADEWMTTFRENIAQTWQQPEHYDLYIPAITWHARFAYDKEKTDRYNERPWGGGAGLSRWDEKGNWHGLYAMAFKDSWNKWEPIAGYGWESTWRPLADENFHLGLGFTAGVTARDNWNYIPLPVLLPLASVGYGPVTFQMTYIPGTYNNGNVYFAWMRFQF | 1.05 | 8.13 | 13.3 | 6.25 | 8.13 | 8.13
MNVSKYVAIFSFVFIQLISVGKVFANADEWMTTFRENIAQTWQQPEHYDLYIPAITWHARFAYDKEKTDRYNERPWGGGFGLSRWDEKGNWHGLYAMAFKDSWNKWEPIAGYGWESTWRPLADENFHLGLGFTAGVTARDNWNYIPLPVLLPLASVGYGPVTFAMTYIPGTYNNGNVYFAWMRFQF | 0.97 | 8.18 | 13.4 | 6.2 | 8.18 | 8.18
MNVSKYVAIFSFVFIQLISVGKVFANADEWMTTFRENIAQTWQQPEHYDLYIPAITWHARFAYDKEKTDRYNERPWGGGFGLSRWDEKGNWHGLYAAAFKDSWNKWEPIAGYGWESTWRPLADENFHLGLGFTAGVTARDNWNYIPLPVLLPLASVGYGPVTFQMTYIPGTYNNGNVYFAWMRFQF | 0.34 | 8.56 | 14 | 5.82 | 8.56 | 8.56
MNVSKYVAIFSFVFIQLISVGKVFANADEWMTTFRENIAQTWQQPEHADLYIPAITWHARFAYDKEKTDRYNERPWGGGFGLSRWDEKGNWHGLYAMAFKDSWNKWEPIAGYGWESTWRPLADENFHLGLGFTAGVTARDNWNYIPLPVLLPLASVGYGPVTFQMTYIPGTYNNGNVYFAWMRFQF | 0.91 | 8.22 | 13.5 | 6.16 | 8.22 | 8.22
MNVSKYVAIFSFVFIQLISVGKVFANADEWMTTFRENIAQTWQQPEHYDLYIPAITWHARFAYDKEKTDRYNERPWGGGFGLSRWDEKGNWHGLYAMAFKDSWNKWEPIGGYGWESTWRPLADENFHLGLGFTAGVTARDNWNYIPLPVLLPLASVGYGPVTFQMTYIPGTYNNGNVYFAWMRFQF | 0.87 | 8.24 | 13.5 |  |  | 
MNVSKYVAIFSFVFIQLISVGKVFANADEWMTTFRENIAQTWQQPEHYDLYIPAITWHARFAYDKEKTDRYNERPWGGGFGLSRWDEKGNWHGLYAMAFKDSWNKWEPIAGFGWESTWRPLADENFHLGLGFTAGVTARDNWNYIPLPVLLPLASVGYGPVTFQMTYIPGTYNNGNVYFAWMRFQF | 1.37 | 7.93 | 13 | 6.45 | 7.93 | 7.93
MNVSKYVAIFSFVFIQLISVGKVFANADEWMTTFRENIAQTWQQPEHYDLYIPAITWHARFAYDKEKTDRYNERPWGGGFGLSRWDEKGNWHGLYAMAFKDSWNKWEPIAGYGWESTWRPLADENFHLGAGFTAGVTARDNWNYIPLPVLLPLASVGYGPVTFQMTYIPGTYNNGNVYFAWMRFQF | 0.76 | 8.3 | 13.6 | 6.08 | 8.3 | 8.3
MNVSKYVAIFSFVFIQLISVGKVFANADEWMTTFRENIAQTWQQPEHYDLYIPAITWHARFAYDKEKTDRYNERPWGGGFGLSRWDEKGNWHGLYAMAFKDSWNKWEPIAGYGWASTWRPLADENFHLGLGFTAGVTARDNWNYIPLPVLLPLASVGYGPVTFQMTYIPGTYNNGNVYFAWMRFQF | 0.66 | 8.37 | 13.7 | 6.01 | 8.37 | 8.37
MNVSKYVAIFSFVFIQLISVGKVFANADEWMTTFRENIAQTWQQPEHYNLYIPAITWHARFAYDKEKTDRYNERPWGGGFGLSRWDEKGNWHGLYAMAFKDSWNKWEPIAGYGWESTWRPLADENFHLGLGFTAGVTARDNWNYIPLPVLLPLASVGYGPVTFQMTYIPGTYNNGNVYFAWMRFQF | 0.6 | 8.4 | 13.8 | 5.98 | 8.4 | 8.4
MNVSKYVAIFSFVFIQLISVGKVFANADEWMTTFRENIAQTWQQPEHYDLYIPAITWHARFAYDKEKTDRYNERPWGGGFGLSRWDEKGNWHGLYAMAFKDSWNKWEPIAGYGWESTWAPLADENFHLGLGFTAGVTARDNWNYIPLPVLLPLASVGYGPVTFQMTYIPGTYNNGNVYFAWMRFQF | 1.53 | 7.84 | 12.8 | 6.54 | 7.84 | 7.84
